Source: PMC4474532 (The EMBO Journal, 2015)

B1: mouse PERK luminal domain (residues 101–399) (domain or fragment, UniProt Q9Z2B5 101-399, looked up)
chain: LVIISTLDGRIAALDAENDGKKQWDLDVGSGSLVSSSLSKPEVFGNKMIIPSLDGDLFQWDRDRESMEAVPFTVESLLESSYKFGDDVVLVGGKSLITYGLSAYSGKLRYICSALGCRRWDSDEMEEEEDILLLQRTQKTVRAVGPRSGSEKWNFSVGHFELRYIPDMETRAGFIESTFKPGGNKEDSKIISDVEEQEATMLDTVIKVSVADWKVMAFSRKGGRLEWEYQFCTPIASAWLVRDGKVIPISLFDDTSYTASEEALGDEEDIVEAARGATENSVYLGMYRGQLYLQSSVRV
B2: human PERK luminal domain (residues 105–403) (domain or fragment, UniProt Q9NZJ5 105-403, looked up)
chain: LVIISTLDGRIAALDPENHGKKQWDLDVGSGSLVSSSLSKPEVFGNKMIIPSLDGALFQWDQDRESMETVPFTVESLLESSYKFGDDVVLVGGKSLTTYGLSAYSGKVRYICSALGCRQWDSDEMEQEEDILLLQRTQKTVRAVGPRSGNEKWNFSVGHFELRYIPDMETRAGFIESTFKPNENTEESKIISDVEEQEAAIMDIVIKVSVADWKVMAFSKKGGHLEWEYQFCTPIASAWLLKDGKVIPISLFDDTSYTSNDDVLEDEEDIVEAARGATENSVYLGMYRGQLYLQSSVRI

Experiments:
[1] = target: the molecule itself; experiment: AUC; sedimentation velocity, 20°C, PERK LD proteins at 30 μM; 50 mM HEPES pH 7.8, 200 mM NaCl, 2 mM TCEP; c(s) by Sedfit; dimer to tetramer equilibrium
[2] = target: the molecule itself; experiment: crystal structure; mouse PERK LD, untagged, 20 mg/ml, hanging drops, 0.1 M MES/imidazole pH 6.5, NPS mix, 12.5% PEG1000, 12.5% PEG3350, 20% MPD, 18°C; 3.3 Å
[3] = target: the molecule itself; experiment: SAXS; H. sapiens PERK LD 1.25 mg/ml (results: 1–5 mg/ml); 50 mM HEPES pH 7.8, 200 mM NaCl, 2 mM TCEP; profiles computed from the crystal structures fitted with OLIGOMER
[4] = target: the molecule itself; experiment: crystal structure; human PERK LD, untagged, 5 mg/ml, hanging drops, 0.1 M Tris pH 8.5, 0.2 M MgCl2, 25% w/v PEG3350, 7% glycerol, 18°C; tungstate MAD; 3.1 Å

Protein	dimer to tetramer ratio [1]	stoichiometry N [1]	stoichiometry N [2]	dimer to tetramer ratio [3]	stoichiometry N [3]	stoichiometry N [4]
B1	~1.5 dimer:tetramer	4	2	–	–	–
B2	–	–	–	1.5 dimer:tetramer	2	4
